Source: publication PMC6587469
Where “and” joins values, the source holds several entries; their conditions need not be identical. Identical values can stand only once.

How the values were obtained:
[1] = target: MabSelect SuRe protein A ligand: tetrameric chain of Z-domains (recombinant form of the B domain of (Staphylococcus aureus)); test: SAXS
[2] = target: MabSelect SuRe protein A ligand: tetrameric chain of Z-domains (recombinant form of the B domain of (Staphylococcus aureus)); test: batch adsorption isotherm

Q: For Trastuzumab (antibody), which stoichiometry N (antibody : protein A chain) [1] is on record?
A: 1 and 2

Q: What about the stoichiometry N (antibody molecules per ligand) [2] of the same substance?
A: 2
